The target of assay [1] is SDS22-KR7A (purified) (human) (UniProt Q15435). The experiment in a line: ITC; 5 μM SDS22 in the cell titrated with 50 μM His-I3 (20 injections), 22 °C, MicroCal iTC200; binding curves not saturated. On the technique in general: Isothermal titration calorimetry measures the heat released or taken up as one component is titrated into another.
Assay [2] has as its target LgBiT-PP1α (UniProt P62136). The experiment in a line: lysate-based split-luciferase complementation. To be noted: mixed HEK293T lysates; signals normalized for the same expression level; n = 3; parent: est. 100; read off a plot.
In assay [3] the target is EGFP-I3-DE4A (human) (UniProt O60927). The experiment in a line: co-IP; EGFP-trap (anti-EGFP nanobodies on agarose, 2 h, 4 °C) of transiently expressed EGFP fusions from HEK293T lysates (20 mM Tris pH 7.9, 0.3 M NaCl, 0.5% Triton X-100); endogenous partners by immunoblot. Background: Immunoblotting shows a protein as a band on a membrane.
EGFP-I3-DE4A (human), sequence (O60927 whole entry, the tested form may be a part): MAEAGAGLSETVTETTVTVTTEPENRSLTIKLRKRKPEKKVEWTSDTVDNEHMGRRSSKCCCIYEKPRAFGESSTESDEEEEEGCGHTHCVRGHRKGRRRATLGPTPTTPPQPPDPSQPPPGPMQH

LgBiT-PP1α, sequence (P62136 whole entry, the tested form may be a part): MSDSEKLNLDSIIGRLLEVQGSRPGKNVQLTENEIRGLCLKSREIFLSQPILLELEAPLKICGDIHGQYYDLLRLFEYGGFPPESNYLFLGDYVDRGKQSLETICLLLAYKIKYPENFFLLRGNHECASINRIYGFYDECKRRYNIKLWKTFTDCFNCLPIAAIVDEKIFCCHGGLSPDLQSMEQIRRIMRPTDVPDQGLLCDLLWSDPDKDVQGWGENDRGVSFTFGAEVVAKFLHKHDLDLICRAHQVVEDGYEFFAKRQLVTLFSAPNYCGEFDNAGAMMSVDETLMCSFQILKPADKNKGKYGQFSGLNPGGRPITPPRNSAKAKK
I2-SmBiT, sequence (P41236 whole entry, change not shown): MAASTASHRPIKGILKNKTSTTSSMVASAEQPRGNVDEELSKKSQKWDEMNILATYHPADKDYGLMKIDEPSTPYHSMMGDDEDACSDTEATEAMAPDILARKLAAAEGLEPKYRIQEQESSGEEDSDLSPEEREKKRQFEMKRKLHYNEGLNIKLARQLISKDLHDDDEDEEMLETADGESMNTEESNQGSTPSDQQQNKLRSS
RM-SmBiT, sequence (Q69YH5 whole entry, change not shown): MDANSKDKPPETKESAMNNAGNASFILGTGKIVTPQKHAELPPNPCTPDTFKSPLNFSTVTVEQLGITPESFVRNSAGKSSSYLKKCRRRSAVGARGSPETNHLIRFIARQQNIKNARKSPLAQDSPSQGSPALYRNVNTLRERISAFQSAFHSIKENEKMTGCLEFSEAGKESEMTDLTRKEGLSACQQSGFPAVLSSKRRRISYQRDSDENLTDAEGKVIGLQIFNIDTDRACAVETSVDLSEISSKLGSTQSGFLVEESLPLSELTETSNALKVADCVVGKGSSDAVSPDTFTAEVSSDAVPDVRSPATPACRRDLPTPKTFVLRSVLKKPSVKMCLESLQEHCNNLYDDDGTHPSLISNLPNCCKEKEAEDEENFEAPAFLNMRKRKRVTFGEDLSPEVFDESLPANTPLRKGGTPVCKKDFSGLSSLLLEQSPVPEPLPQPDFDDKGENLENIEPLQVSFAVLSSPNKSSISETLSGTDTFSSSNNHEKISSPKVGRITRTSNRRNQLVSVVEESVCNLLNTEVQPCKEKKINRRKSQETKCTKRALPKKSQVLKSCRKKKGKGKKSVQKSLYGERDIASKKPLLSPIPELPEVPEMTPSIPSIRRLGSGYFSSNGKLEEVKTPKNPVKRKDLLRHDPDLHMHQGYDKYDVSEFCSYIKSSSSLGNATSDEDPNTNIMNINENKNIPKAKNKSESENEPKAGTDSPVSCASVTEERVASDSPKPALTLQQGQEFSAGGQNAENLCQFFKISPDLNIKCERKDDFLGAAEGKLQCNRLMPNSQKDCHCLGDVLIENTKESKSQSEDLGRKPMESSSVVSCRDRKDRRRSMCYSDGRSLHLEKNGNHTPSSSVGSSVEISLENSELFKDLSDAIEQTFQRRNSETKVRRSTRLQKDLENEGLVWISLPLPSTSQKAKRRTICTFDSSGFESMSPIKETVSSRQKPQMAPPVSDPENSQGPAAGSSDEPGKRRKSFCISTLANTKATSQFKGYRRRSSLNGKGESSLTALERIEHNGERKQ
His-I3, sequence (O60927 whole entry): as the sequence (O60927 whole entry, the tested form may be a part) above
I3^WT-SmBiT, sequence (O60927 whole entry, change not shown): as the sequence (O60927 whole entry, the tested form may be a part) above
SDS22-KR7A (purified) (human), sequence (Q15435 whole entry): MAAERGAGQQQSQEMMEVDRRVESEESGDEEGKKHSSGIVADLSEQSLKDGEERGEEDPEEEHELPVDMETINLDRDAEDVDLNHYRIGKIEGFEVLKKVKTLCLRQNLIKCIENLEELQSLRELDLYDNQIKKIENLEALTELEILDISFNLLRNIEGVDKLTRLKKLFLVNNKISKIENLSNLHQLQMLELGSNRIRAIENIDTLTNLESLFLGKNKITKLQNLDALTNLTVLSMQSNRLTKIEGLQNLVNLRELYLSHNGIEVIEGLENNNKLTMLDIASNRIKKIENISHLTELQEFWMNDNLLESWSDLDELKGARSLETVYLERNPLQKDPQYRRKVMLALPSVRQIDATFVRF
PP1 (endogenous, HEK293T), sequence (P62136 whole entry): as the sequence (P62136 whole entry, the tested form may be a part) above

As to “His-I3 (from UniProt O60927 1-126) (natural protein)”, in assay [1], the Kd (in general, the concentration at which binding is half-saturated) worked out at 128 µM.
Regarding I2-SmBiT (from UniProt P41236) RATA, in assay [2], the percent of parent (% of RIPPOs^WT-SmBiT) worked out at 32.
In the case of I3^WT-SmBiT (from UniProt O60927) RATA, the percent of parent (% of RIPPOs^WT-SmBiT) in assay [2] came out at 6.
Substance “PP1 (endogenous, HEK293T) (from UniProt P62136 1-330) (enzyme)” came in with a percent decrease of binding against EGFP-I3-WT in assay [3] of 35%.
Regarding RM-SmBiT (from UniProt Q69YH5) RATA, the percent of parent (% of RIPPOs^WT-SmBiT) in assay [2] is 10.

The values above are taken from paper PMC11199634.
